In patent publication US20160120976A1:

Legend:
[1] = biological target: CD74 (human) (UniProt P04233); test: cell-based or functional assay
[2] = biological target: CD20 (human) (UniProt P11836); test: cell-based or functional assay
Chain of CD20 (human) (P11836 whole entry): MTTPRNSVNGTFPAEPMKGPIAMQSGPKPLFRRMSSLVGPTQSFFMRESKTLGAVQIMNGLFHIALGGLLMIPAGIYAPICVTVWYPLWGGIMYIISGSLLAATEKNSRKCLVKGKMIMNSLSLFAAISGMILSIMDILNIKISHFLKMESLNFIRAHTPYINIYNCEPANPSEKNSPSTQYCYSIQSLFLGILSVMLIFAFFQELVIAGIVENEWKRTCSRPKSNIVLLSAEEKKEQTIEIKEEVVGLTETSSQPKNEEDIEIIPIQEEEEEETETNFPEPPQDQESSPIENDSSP

Chain of CD74 (human) (P04233 whole entry): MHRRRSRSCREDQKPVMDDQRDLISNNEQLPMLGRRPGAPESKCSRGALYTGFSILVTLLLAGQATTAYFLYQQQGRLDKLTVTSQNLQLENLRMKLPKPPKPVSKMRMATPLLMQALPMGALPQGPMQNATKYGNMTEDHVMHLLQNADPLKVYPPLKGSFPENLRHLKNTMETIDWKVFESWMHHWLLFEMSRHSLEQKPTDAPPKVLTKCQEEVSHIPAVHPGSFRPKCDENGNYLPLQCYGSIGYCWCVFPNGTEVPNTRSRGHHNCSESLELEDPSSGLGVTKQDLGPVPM

| Substance | EC50 (nM), MTS cell proliferation assay, Daudi [1] | EC50 (nM), MTS cell proliferation assay, Granta-519 [1] | EC50 (nM), MTS cell proliferation assay, JeKo-1 [1] | EC50 (nM), MTS cell proliferation assay, Mino [1] | EC50 (nM), MTS cell proliferation assay, Raji [1] | EC50, MTS assay, in CLL lines WAC, MEC-1, ALL lines REH-1, MN60 and MM lines CAG, RPMI8226, KMS11, KMS12-BM, KMS12-PE [1] | Percent inhibition (%) at 100 nM, MTS assay, Granta-519 [1] | Percent inhibition (%) at 100 nM, MTS assay, JeKo-1 [1] | Percent inhibition (%) at 100 nM, MTS assay, Mino [1] | Percent inhibition (%) at 100 nM, MTS assay, Raji [1] | homotypic adhesion (%), JeKo-1, 2 h, 10 nM [1] | homotypic adhesion (%), JeKo-1, 24 h, 10 nM [1] | EC50 (nM), MTS cell proliferation assay, Daudi [2] | EC50 (nM), MTS cell proliferation assay, Granta-519 [2] | EC50 (nM), MTS cell proliferation assay, JeKo-1 [2] | EC50 (nM), MTS cell proliferation assay, Mino [2] | EC50 (nM), MTS cell proliferation assay, Raji [2] | Percent inhibition (%) at 100 nM, MTS assay, Granta-519 [2] | Percent inhibition (%) at 100 nM, MTS assay, JeKo-1 [2] | Percent inhibition (%) at 100 nM, MTS assay, Raji [2] | further results |
| --- | --- | --- | --- | --- | --- | --- | --- | --- | --- | --- | --- | --- | --- | --- | --- | --- | --- | --- | --- | --- | --- |
| 74-(20)-(20) bispecific hexavalent antibody (HexAb): CH3-AD2-IgG-milatuzumab with a pair of stabilized dimers of CH1-DDD2-Fab-veltuzumab (bispecific antibody) | 1.2 nM | 0.6 nM | 2 nM | 1.2 nM | 0.3 nM | > 100 nM | 65% | 90% | 100% | 50% | 90% | > 95% | 1.2 nM | 0.6 nM | 2 nM | 1.2 nM | 0.3 nM | 65% | 90% | 50% | homotypic adhesion (%), JeKo-1, 2 h, 10 nM [2]: 90%; homotypic adhesion (%), JeKo-1, 24 h, 10 nM [2]: > 95% |
| 20-(74)-(74) bispecific hexavalent antibody (HexAb): CH3-AD2-IgG-veltuzumab with a pair of stabilized dimers of CH1-DDD2-Fab-milatuzumab (bispecific antibody) | 5.3 nM | 2 nM | 3 nM | 13.7 nM | 0.3 nM | > 100 nM | 55% | 70% | 80% | 50% | 90% | > 95% | 5.3 nM | 2 nM | 3 nM | 13.7 nM | 0.3 nM | 55% | 70% | 50% | Percent inhibition (%) at 100 nM, MTS assay, Mino [2]: 80%; homotypic adhesion (%), JeKo-1, 2 h, 10 nM [2]: 90%; homotypic adhesion (%), JeKo-1, 24 h, 10 nM [2]: > 95% |
